Laboratory results from US5844099, “Cytokine antagonists” (Regeneron Pharmaceuticals, Inc., dated 1998).
One block for each molecule: values may come before it.

Assays:
[1] = biological target: CNTFRα, gp130 and LIFRβ on EW-1 cells; test: two site fit of CNTF binding on EW-1 cells; high affinity site
[2] = biological target: CNTFRα on EW-1 cells; test: two site fit of CNTF binding on EW-1 cells; low affinity site
[3] = biological target: T1, recombinant human IL-6 (human, UniProt P05231)
[4] = biological target: human 125I-IL-6 (human) (UniProt P05231); test: dissociation of 20 pM 125I-IL-6 from 500 pM mAb B-E8 after adding 20 nM cold IL-6; precipitation with Protein G-Sepharose
[5] = biological target: T1, recombinant human IL-6; test: cell-based or functional assay
[6] = biological target: T2, CNTFRα on PC12D cells; test: Scatchard analysis of 125I-CNTF saturation binding on PC12D cells; low affinity site
T2 sequence (Q08406 23-342, looked up): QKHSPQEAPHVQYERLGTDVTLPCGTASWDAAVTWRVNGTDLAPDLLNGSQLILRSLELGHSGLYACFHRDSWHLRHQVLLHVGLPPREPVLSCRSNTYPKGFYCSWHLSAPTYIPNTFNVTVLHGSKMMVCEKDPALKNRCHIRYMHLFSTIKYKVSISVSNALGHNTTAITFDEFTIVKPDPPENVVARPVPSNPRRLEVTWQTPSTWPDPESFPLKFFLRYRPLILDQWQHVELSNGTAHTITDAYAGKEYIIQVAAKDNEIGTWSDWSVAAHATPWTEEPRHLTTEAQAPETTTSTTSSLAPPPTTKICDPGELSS

[7] = biological target: T3, CNTFRα:β1 (CNTFRα and gp130) on PC12D cells; test: Scatchard analysis of 125I-CNTF saturation binding on PC12D cells; high affinity site
T3 sequence (Q08406 whole entry, looked up): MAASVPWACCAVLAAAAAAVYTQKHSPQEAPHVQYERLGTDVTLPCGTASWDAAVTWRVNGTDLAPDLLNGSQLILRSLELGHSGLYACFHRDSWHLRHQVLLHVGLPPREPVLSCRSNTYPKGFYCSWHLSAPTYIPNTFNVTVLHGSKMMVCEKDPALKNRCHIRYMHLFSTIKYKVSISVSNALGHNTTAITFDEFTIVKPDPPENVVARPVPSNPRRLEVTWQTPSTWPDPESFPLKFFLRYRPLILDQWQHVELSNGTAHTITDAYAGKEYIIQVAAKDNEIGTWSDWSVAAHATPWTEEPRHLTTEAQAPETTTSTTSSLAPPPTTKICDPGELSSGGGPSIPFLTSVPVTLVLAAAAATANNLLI
T3 sequence (P40190 whole entry, looked up): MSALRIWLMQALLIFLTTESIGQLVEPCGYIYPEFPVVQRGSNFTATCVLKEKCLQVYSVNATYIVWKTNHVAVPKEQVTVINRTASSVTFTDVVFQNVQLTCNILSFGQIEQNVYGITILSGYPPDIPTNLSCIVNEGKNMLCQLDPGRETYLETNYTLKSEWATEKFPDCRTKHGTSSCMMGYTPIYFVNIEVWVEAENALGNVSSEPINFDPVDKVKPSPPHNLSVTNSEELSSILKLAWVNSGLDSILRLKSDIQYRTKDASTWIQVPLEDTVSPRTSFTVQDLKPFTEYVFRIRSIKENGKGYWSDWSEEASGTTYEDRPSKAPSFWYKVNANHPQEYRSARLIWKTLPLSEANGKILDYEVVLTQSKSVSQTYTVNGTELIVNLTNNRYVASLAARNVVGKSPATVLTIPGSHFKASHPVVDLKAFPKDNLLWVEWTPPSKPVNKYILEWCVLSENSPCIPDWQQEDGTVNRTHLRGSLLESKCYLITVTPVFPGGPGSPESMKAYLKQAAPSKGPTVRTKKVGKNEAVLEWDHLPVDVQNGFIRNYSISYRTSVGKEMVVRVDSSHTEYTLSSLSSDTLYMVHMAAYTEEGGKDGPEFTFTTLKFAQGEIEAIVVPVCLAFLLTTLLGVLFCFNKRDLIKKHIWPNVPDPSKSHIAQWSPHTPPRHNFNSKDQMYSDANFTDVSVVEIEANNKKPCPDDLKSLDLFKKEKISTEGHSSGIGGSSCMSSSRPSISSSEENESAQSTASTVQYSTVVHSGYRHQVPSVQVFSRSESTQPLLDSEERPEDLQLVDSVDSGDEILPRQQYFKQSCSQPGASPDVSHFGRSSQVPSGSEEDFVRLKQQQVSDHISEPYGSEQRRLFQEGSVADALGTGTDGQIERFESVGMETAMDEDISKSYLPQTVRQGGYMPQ

Molecule: anti-IL-6 monoclonal neutralizing antibody B-E8
IL-6-dependent proliferation of XG-1 cells (MTT assay) (fold molar excess over IL-6) [3]: 10
percent of the counts remaining associated after three days [4]: < 5%

B1: gp130-Fc homodimer (Fc fusion)
chain (part 1 of 2): ELLDPCGYISPESPVVQLHSNFTAVCVLKEKCMDYFHVNANYIVWKTNHFTIPKEQYTIINRTASSVTFTDIASLNIQLTCNILTFGQLEQNVYGITIISGLPPEKPKNLSCIVNEGKKMRCEWDGGRETHLETNFTLKSEWATHKFADCKAKRDTPTSCTVDYSTVYFVNIEVWVEAENALGKVTSDHINFDPVYKVKPNPPHNLSVINSEELSSILKLTWTNPSIKSVIILKYNIQYRTKDASTWSQIPPEDTASTRSSFTVQDLKPFTEYVFRIRCMKEDGKGYWSDWSEEASGITYEDRPSKAPSFWYKIDPSHTQGYRTVQLVWKTLPPFEANGKILDYEVTLTRWKSHLQNYTVNATKLTVNLTNDRYLATLTVRNLVGKSDAAVLTIPACDFQATHPVMDLKAFPKDNMLWVEWTTPRESVKKYILEWCVLSDKAPCITDWQQEDGTVHRTYLRGNLAESKCYLITVTPVYADGPGSPESIKAYLKQAPPSKGPTVRTKKVGKNEAVLEWDQLPVDVQNGFIRNYTIFYRTIIGNETAVNVDSSHTEYTLSSLTSDTLYMVRMAAYTDEGGKDGPEFTFTTPKFAQGEIESG
chain (part 2 of 2): HHHHHH
IL-6-dependent proliferation of XG-1 cells [5]: 1000 fold molar excess over IL-6

More lines, now with the values ahead:

Kd [1]: 0.01 nM
Kd [2]: 1 nM
Molecule: CNTF (ligand)

Kd [6]: 3.4 nM
Kd [7]: 0.009 nM
B2: 125I-CNTF (ligand, UniProt P20294 1-200, looked up, species assumed)
Ciliary neurotrophic factor: MAFAEQTPLTLHRRDLCSRSIWLARKIRSDLTALMESYVKHQGLNKNINLDSVDGVPVASTDRWSEMTEAERLQENLQAYRTFQGMLTKLLEDQRVHFTPTEGDFHQAIHTLMLQVSAFAYQLEELMVLLEQKIPENEADGMPATVGDGGLFEKKLWGLKVLQELSQWTVRSIHDLRVISSHQMGISALESHYGAKDKQM
modifications: 125I label
